Experimental data from patent US20180155451A1 (published 2018).

T1: FcγRIIa R (extracellular domain with a His tag at the C terminus) (human, UniProt P12318 34-217)
T1 construct: extracellular domain; expressed in FreeStyle293 cells; also called FcgRIIa R; FcγRIIa type R; not shown: His tag at the C terminus
T1 sequence (looked up): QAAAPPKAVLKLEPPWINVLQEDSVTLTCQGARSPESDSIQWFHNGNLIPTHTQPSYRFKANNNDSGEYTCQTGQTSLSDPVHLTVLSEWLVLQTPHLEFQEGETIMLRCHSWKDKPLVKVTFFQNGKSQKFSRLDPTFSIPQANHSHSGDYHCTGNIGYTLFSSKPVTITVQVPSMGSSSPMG


Target: T1, FcγRIIa R (extracellular domain with a …)
Assay: SPR Biacore, relative binding

Row | He/Con_2aR | Binder
1 | 106 % of GpH7-A5/GpH7-B3/GpL16-k0 (=100) | GpH7-A5/GpH7-B3 variant K334_08L/GpL16-k0 (antibody, human IgG1, kappa, heterodimerized; mutation in one H chain; also called He Ab) heavy 1: not shown heavy 2: not shown light: DIVMTQSPLSLPVTPGEPASISCQASESLVHSNRNTYLHWYLQKPGQSPQLLIYKVSNRFSGVPDRFSGSGSGTDFTLKISRVEAEDVGVYYCSQNTHVPPTFGQGTKVEIERTVAAPSVFIFPPSDEQLKSGTASVVCLLNNFYPREAKVQWKVDNALQSGNSQESVTEQDSKDSTYSLSSTLTLSKADYEKHKVYACEVTHQGLSSPVTKSFNRGEC
2 | 114 % of GpH7-A5/GpH7-B3/GpL16-k0 (=100) | GpH7-A5/GpH7-B3 variant P331_16H/GpL16-k0 (antibody, human IgG1, kappa, heterodimerized; mutation in one H chain; also called He Ab) heavy 1: not shown heavy 2: not shown light: DIVMTQSPLSLPVTPGEPASISCQASESLVHSNRNTYLHWYLQKPGQSPQLLIYKVSNRFSGVPDRFSGSGSGTDFTLKISRVEAEDVGVYYCSQNTHVPPTFGQGTKVEIERTVAAPSVFIFPPSDEQLKSGTASVVCLLNNFYPREAKVQWKVDNALQSGNSQESVTEQDSKDSTYSLSSTLTLSKADYEKHKVYACEVTHQGLSSPVTKSFNRGEC
3 | 174 % of GpH7-A5/GpH7-B3/GpL16-k0 (=100) | GpH7-A5/GpH7-B3 variant P238_04F/GpL16-k0 (antibody, human IgG1, kappa, heterodimerized; mutation in one H chain; also called He Ab) heavy 1: not shown heavy 2: not shown light: DIVMTQSPLSLPVTPGEPASISCQASESLVHSNRNTYLHWYLQKPGQSPQLLIYKVSNRFSGVPDRFSGSGSGTDFTLKISRVEAEDVGVYYCSQNTHVPPTFGQGTKVEIERTVAAPSVFIFPPSDEQLKSGTASVVCLLNNFYPREAKVQWKVDNALQSGNSQESVTEQDSKDSTYSLSSTLTLSKADYEKHKVYACEVTHQGLSSPVTKSFNRGEC
4 | 122 % of GpH7-A5/GpH7-B3/GpL16-k0 (=100) | GpH7-A5/GpH7-B3 variant S239_08L/GpL16-k0 (antibody, human IgG1, kappa, heterodimerized; mutation in one H chain; also called He Ab) heavy 1: not shown heavy 2: not shown light: DIVMTQSPLSLPVTPGEPASISCQASESLVHSNRNTYLHWYLQKPGQSPQLLIYKVSNRFSGVPDRFSGSGSGTDFTLKISRVEAEDVGVYYCSQNTHVPPTFGQGTKVEIERTVAAPSVFIFPPSDEQLKSGTASVVCLLNNFYPREAKVQWKVDNALQSGNSQESVTEQDSKDSTYSLSSTLTLSKADYEKHKVYACEVTHQGLSSPVTKSFNRGEC
5 | 122 % of GpH7-A5/GpH7-B3/GpL16-k0 (=100) | GpH7-A5/GpH7-B3 variant S267_06M/GpL16-k0 (antibody, human IgG1, kappa, heterodimerized; mutation in one H chain; also called He Ab) heavy 1: not shown heavy 2: not shown light: DIVMTQSPLSLPVTPGEPASISCQASESLVHSNRNTYLHWYLQKPGQSPQLLIYKVSNRFSGVPDRFSGSGSGTDFTLKISRVEAEDVGVYYCSQNTHVPPTFGQGTKVEIERTVAAPSVFIFPPSDEQLKSGTASVVCLLNNFYPREAKVQWKVDNALQSGNSQESVTEQDSKDSTYSLSSTLTLSKADYEKHKVYACEVTHQGLSSPVTKSFNRGEC
6 | 112 % of GpH7-A5/GpH7-B3/GpL16-k0 (=100) | GpH7-A5/GpH7-B3 variant P331_15Y/GpL16-k0 (antibody, human IgG1, kappa, heterodimerized; mutation in one H chain; also called He Ab) heavy 1: not shown heavy 2: not shown light: DIVMTQSPLSLPVTPGEPASISCQASESLVHSNRNTYLHWYLQKPGQSPQLLIYKVSNRFSGVPDRFSGSGSGTDFTLKISRVEAEDVGVYYCSQNTHVPPTFGQGTKVEIERTVAAPSVFIFPPSDEQLKSGTASVVCLLNNFYPREAKVQWKVDNALQSGNSQESVTEQDSKDSTYSLSSTLTLSKADYEKHKVYACEVTHQGLSSPVTKSFNRGEC
7 | 111 % of GpH7-A5/GpH7-B3/GpL16-k0 (=100) | GpH7-A5/GpH7-B3 variant P331_04F/GpL16-k0 (antibody, human IgG1, kappa, heterodimerized; mutation in one H chain; also called He Ab) heavy 1: not shown heavy 2: not shown light: DIVMTQSPLSLPVTPGEPASISCQASESLVHSNRNTYLHWYLQKPGQSPQLLIYKVSNRFSGVPDRFSGSGSGTDFTLKISRVEAEDVGVYYCSQNTHVPPTFGQGTKVEIERTVAAPSVFIFPPSDEQLKSGTASVVCLLNNFYPREAKVQWKVDNALQSGNSQESVTEQDSKDSTYSLSSTLTLSKADYEKHKVYACEVTHQGLSSPVTKSFNRGEC
8 | 109 % of GpH7-A5/GpH7-B3/GpL16-k0 (=100) | GpH7-A5/GpH7-B3 variant K334_13S/GpL16-k0 (antibody, human IgG1, kappa, heterodimerized; mutation in one H chain; also called He Ab) heavy 1: not shown heavy 2: not shown light: DIVMTQSPLSLPVTPGEPASISCQASESLVHSNRNTYLHWYLQKPGQSPQLLIYKVSNRFSGVPDRFSGSGSGTDFTLKISRVEAEDVGVYYCSQNTHVPPTFGQGTKVEIERTVAAPSVFIFPPSDEQLKSGTASVVCLLNNFYPREAKVQWKVDNALQSGNSQESVTEQDSKDSTYSLSSTLTLSKADYEKHKVYACEVTHQGLSSPVTKSFNRGEC
9 | 106 % of GpH7-A5/GpH7-B3/GpL16-k0 (=100) | GpH7-A5/GpH7-B3 variant P331_02A/GpL16-k0 (antibody, human IgG1, kappa, heterodimerized; mutation in one H chain; also called He Ab) heavy 1: not shown heavy 2: not shown light: DIVMTQSPLSLPVTPGEPASISCQASESLVHSNRNTYLHWYLQKPGQSPQLLIYKVSNRFSGVPDRFSGSGSGTDFTLKISRVEAEDVGVYYCSQNTHVPPTFGQGTKVEIERTVAAPSVFIFPPSDEQLKSGTASVVCLLNNFYPREAKVQWKVDNALQSGNSQESVTEQDSKDSTYSLSSTLTLSKADYEKHKVYACEVTHQGLSSPVTKSFNRGEC
10 | 109 % of GpH7-A5/GpH7-B3/GpL16-k0 (=100) | GpH7-A5/GpH7-B3 variant K334_19Q/GpL16-k0 (antibody, human IgG1, kappa, heterodimerized; mutation in one H chain; also called He Ab) heavy 1: not shown heavy 2: not shown light: DIVMTQSPLSLPVTPGEPASISCQASESLVHSNRNTYLHWYLQKPGQSPQLLIYKVSNRFSGVPDRFSGSGSGTDFTLKISRVEAEDVGVYYCSQNTHVPPTFGQGTKVEIERTVAAPSVFIFPPSDEQLKSGTASVVCLLNNFYPREAKVQWKVDNALQSGNSQESVTEQDSKDSTYSLSSTLTLSKADYEKHKVYACEVTHQGLSSPVTKSFNRGEC
11 | 120 % of GpH7-A5/GpH7-B3/GpL16-k0 (=100) | GpH7-A5/GpH7-B3 variant P238_03V/GpL16-k0 (antibody, human IgG1, kappa, heterodimerized; mutation in one H chain; also called He Ab) heavy 1: not shown heavy 2: not shown light: DIVMTQSPLSLPVTPGEPASISCQASESLVHSNRNTYLHWYLQKPGQSPQLLIYKVSNRFSGVPDRFSGSGSGTDFTLKISRVEAEDVGVYYCSQNTHVPPTFGQGTKVEIERTVAAPSVFIFPPSDEQLKSGTASVVCLLNNFYPREAKVQWKVDNALQSGNSQESVTEQDSKDSTYSLSSTLTLSKADYEKHKVYACEVTHQGLSSPVTKSFNRGEC
